Measurements published in patent publication US20200002405A1 (ADMINISTRATORS OF THE TULANE EDUCATIONAL FUND, published 2020).
Where two headings read alike, the source gives them in different places.

T1: LASV Josiah (lineage IV) glycoprotein, full-length GP (Lassa virus, Josiah strain, UniProt P08669 2-491)
T1 sequence: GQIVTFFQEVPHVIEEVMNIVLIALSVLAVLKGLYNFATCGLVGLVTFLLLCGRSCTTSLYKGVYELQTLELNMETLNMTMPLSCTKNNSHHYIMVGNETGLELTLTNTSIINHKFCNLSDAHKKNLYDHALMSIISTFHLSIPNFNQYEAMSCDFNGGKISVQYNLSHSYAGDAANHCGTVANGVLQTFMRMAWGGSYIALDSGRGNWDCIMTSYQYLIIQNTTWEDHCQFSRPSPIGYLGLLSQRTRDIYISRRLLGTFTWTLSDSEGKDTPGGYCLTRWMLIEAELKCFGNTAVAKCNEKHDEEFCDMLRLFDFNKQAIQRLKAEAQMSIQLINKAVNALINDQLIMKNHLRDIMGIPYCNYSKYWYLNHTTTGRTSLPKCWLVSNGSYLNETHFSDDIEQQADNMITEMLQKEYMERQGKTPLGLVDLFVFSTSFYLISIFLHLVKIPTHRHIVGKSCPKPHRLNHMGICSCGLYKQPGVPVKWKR

T2: LCMV WE strain GP (LCMV, WE strain, UniProt P07399 2-498)
T2 construct: whole, on cells
T2 sequence: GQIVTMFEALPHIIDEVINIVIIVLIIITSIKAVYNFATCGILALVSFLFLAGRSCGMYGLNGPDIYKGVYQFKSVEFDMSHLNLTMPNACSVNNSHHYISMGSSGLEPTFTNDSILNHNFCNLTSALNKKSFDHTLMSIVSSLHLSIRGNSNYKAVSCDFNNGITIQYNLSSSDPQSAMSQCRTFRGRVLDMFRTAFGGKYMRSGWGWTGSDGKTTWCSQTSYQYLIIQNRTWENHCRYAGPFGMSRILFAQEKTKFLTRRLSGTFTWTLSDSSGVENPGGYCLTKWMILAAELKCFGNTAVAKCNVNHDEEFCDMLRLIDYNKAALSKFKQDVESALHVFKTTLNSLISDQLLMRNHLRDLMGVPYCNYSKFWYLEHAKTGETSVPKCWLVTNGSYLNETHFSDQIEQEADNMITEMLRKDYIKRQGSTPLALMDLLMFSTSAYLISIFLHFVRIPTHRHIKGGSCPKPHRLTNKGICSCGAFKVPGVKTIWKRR

B1: 37.7H (antibody, V domains shown)
VH: EVQLVQSGGGLVKAGGSLRLSCAASGFTFSTYSMNWIRQAPGKGLEWVASISSRSGSHINYVDSVKGRFTISRDNARDLLYLQMNSLRVDDSALYYCARDRRSGTSPLPLDVWGQGTTVTVFS
VL: DQSALTQPASVSGSPGQSITISCTGTGSDIGGYNFVSWYQQYPGKAPKLIIYEVRIRASGVSNRFSGSKSGNTASLTISGLQAEDEADYYCNSYSIHSPWVFGGGTKLTVLR
B2: 37.2G (antibody, V domains shown)
VH: EVQLVESGGGLVKPGGSRRLSCAASGFTFSRDTMTWVRQAPGKGLEWVASISSGSSDINYADSVKGRFTISRDNGKNSLYLHMNSLRADDTAIYYCARDPRSGISGRYGMDVWGQGTTVTVSS
VL: DIVLTQSPGTLSLSPGERATLSCRASQSVNSIFLAWYQQKPGQAPRLLIYGASSRATGIPDRFSGSGSGTDFTLTISRLEPEDFAVYYCQQYHSSPKLTFGGGTKVEIKR

Key:
[1] = biological target: LASV 237 (lineage III) glycoprotein (Lassa virus, strain 237); assay: cell-based or functional assay
[2] = biological target: T1, LASV Josiah (lineage IV) glycoprotein, …; assay: cell-based or functional assay
[3] = biological target: LASV Pinneo (lineage I) glycoprotein (Lassa virus, strain Pinneo); assay: cell-based or functional assay
[4] = biological target: LASV A19 (lineage II) glycoprotein (Lassa virus, strain A19); assay: cell-based or functional assay
[5] = biological target: T1, LASV Josiah (lineage IV) glycoprotein, …; assay: cell-based or functional assay; remark: listed apart in the source
LCMV WE strain GP = biological target: T2, LCMV WE strain GP; assay: cross-reactivity, immunofluorescence on GP-transfected 293T cells

| Binder | IC50 (neutralization) [1] | IC80 (neutralization) [1] | IC50 (neutralization) [2] | IC80 (neutralization) [2] | IC50 (neutralization) [3] | IC80 (neutralization) [3] | IC50 (neutralization) [4] | IC80 (neutralization) [4] | IC50 (neutralization) [5] | IC80 (neutralization) [5] | binding result (LCMV WE strain GP) |
| --- | --- | --- | --- | --- | --- | --- | --- | --- | --- | --- | --- |
| B1 | 0.077 µg/mL | 0.202 µg/mL | 0.191 µg/mL | 0.532 µg/mL | 0.301 µg/mL | 1.66 µg/mL | 0.255 µg/mL | 0.537 µg/mL | 0.134 µg/mL | 0.214 µg/mL | binds |
| B2 | 2.02 µg/mL | 5.23 µg/mL | 5.6 µg/mL | 16 µg/mL | > 20 µg/mL | > 20 µg/mL | 1.1 µg/mL | 10 µg/mL | 0.405 µg/mL | 1.78 µg/mL | binds |
